The results in this text go back to article PMC4137706 (Molecular Biology and Evolution, 2014).

As a reminder, the Kd is the constant that tells how readily two partners part at equilibrium.

Experiment [1] concerns the target Full-length S. rosetta Flotillin 1 N-terminally tagged with GST (GST-SrFlotillin 1) (S. rosetta). Description: […].
Experiment [2] has as its target T1, Full-length human Flotillin 1 N-terminally tagged with GST (GST-HsFlotillin 1) (human, UniProt O75955 1-427).
T1 sequence: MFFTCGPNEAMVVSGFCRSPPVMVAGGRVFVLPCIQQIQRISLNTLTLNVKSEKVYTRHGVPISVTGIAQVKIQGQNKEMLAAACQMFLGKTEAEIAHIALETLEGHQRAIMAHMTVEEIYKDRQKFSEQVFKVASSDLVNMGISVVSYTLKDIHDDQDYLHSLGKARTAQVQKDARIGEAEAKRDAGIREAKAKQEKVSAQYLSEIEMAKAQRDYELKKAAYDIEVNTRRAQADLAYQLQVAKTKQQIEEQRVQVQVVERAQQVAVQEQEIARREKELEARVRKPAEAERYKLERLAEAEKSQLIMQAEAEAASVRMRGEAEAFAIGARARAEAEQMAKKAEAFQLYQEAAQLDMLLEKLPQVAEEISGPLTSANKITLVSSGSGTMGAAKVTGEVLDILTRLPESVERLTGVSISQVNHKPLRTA
The experiment is described as follows: pull-down.

Take “Full-length Salpingoeca rosetta Homer, N-terminally hexahistidine-tagged (His-SrHomer) (natural protein)”: the Kd in experiment [1] was 960 nM.

B1: Full-length human Homer 1, N-terminally hexahistidine-tagged (His-HsHomer 1) (natural protein)
chain: MGEQPIFSTRAHVFQIDPNTKKNWVPTSKHAVTVSYFYDSTRNVYRIISLDGSKAIINSTITPNMTFTKTSQKFGQWADSRANTVYGLGFSSEHHLSKFAEKFQEFKEAARLAKEKSQEKMELTSTPSQESAGGDLQSPLTPESINGTDDERTPDVTQNSEPRAEPTQNALPFSHSSAISKHWEAELATLKGNNAKLTAALLESTANVKQWKQQLAAYQEEAERLHKRVTELECVSSQANAVHTHKTELNQTIQELEETLKLKEEEIERLKQEIDNARELQEQRDSLTQKLQEVEIRNKDLEGQLSDLEQRLEKSQNEQEAFRNNLKTLLEILDGKIFELTELRDNLAKLLECS
Consider B1, for which, in experiment [2], the Kd was ~830 nM.
